Assay results published in PMC3958441, “Isl1 and Pou4f2 Form a Complex to Regulate Target Genes in Developing Retinal Ganglion Cells” (PLoS ONE, 2014).

T1: Pou4f2D5 (mouse, UniProt Q63934 125-411)
T1 sequence: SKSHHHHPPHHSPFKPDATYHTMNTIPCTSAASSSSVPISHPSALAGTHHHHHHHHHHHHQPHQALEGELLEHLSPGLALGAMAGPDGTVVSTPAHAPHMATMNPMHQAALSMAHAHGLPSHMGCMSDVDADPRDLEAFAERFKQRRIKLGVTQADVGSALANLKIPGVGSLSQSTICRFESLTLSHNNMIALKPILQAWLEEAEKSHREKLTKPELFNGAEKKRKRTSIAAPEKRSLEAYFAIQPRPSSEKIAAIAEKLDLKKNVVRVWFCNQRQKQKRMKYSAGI

T2: Isl1 (mouse, UniProt P61372 1-349)
T2 sequence: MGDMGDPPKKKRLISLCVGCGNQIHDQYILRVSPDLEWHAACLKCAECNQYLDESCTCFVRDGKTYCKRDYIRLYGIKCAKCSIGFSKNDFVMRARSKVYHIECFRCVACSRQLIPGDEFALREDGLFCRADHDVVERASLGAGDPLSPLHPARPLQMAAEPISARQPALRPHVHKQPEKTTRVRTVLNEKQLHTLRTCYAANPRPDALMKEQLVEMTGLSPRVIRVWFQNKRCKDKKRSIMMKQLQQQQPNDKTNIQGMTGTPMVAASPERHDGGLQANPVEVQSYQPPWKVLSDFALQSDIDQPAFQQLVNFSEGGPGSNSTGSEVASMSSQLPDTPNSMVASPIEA

T3: Pou4f2 (Brn3b) (mouse, UniProt Q63934 1-411)
T3 sequence: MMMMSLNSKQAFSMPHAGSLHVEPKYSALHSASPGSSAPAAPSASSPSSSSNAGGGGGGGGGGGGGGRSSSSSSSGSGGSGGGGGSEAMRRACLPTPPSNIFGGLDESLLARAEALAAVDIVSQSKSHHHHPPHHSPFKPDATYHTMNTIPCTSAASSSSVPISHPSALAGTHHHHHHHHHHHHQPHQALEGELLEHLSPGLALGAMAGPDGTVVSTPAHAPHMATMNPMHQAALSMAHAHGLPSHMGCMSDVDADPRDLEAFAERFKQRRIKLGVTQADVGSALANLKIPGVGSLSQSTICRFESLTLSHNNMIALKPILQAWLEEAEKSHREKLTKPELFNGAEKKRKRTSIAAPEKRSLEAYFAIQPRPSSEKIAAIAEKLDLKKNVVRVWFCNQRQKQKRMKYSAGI

T4: Pou4f2, full-length, His-tagged (mouse, UniProt Q63934 1-411)
T4 construct: Pou4f2 (Brn3b), mouse, full-length coding region in pET-28a(+); 411 a.a; also called Brn3b; source: E. coli, in lysate (pull-down); purified on His SpinTrap columns (EMSA); not shown: His tag, C-terminal, kept
T4 sequence (looked up): T3 sequence

T5: Isl1 expressed in HEK 293 cells (mouse, UniProt P61372 1-349)
T5 sequence (looked up): T2 sequence

B1: IRX6(W) (dsDNA)
DNA 1: GTACTACTAATTAATTAATTGCAAACATTTC
DNA 2: GGAAATGTTTGCAATTAATTAATTAGTAGTA
B2: SBRN3(M) (dsDNA)
DNA 1: GCACACGACCCAGCGCGTTGACAACCGGGCTG
DNA 2: GCAGCCCGGTTGTCAACGCGCTGGGTCGTGTG
B3: Isl1D5 (a.a. 74-349) (domain or fragment, mouse, UniProt P61372 74-349, looked up)
chain: LYGIKCAKCSIGFSKNDFVMRARSKVYHIECFRCVACSRQLIPGDEFALREDGLFCRADHDVVERASLGAGDPLSPLHPARPLQMAAEPISARQPALRPHVHKQPEKTTRVRTVLNEKQLHTLRTCYAANPRPDALMKEQLVEMTGLSPRVIRVWFQNKRCKDKKRSIMMKQLQQQQPNDKTNIQGMTGTPMVAASPERHDGGLQANPVEVQSYQPPWKVLSDFALQSDIDQPAFQQLVNFSEGGPGSNSTGSEVASMSSQLPDTPNSMVASPIEA
notes: Isl1, mouse, a.a; 74-349; source: E. coli, in lysate (pull-down); purified on His SpinTrap columns (EMSA); not shown: His tag, C-terminal, kept
B4: Pou4f2 expressed in HEK 293 cells (natural protein, mouse, UniProt Q63934 1-411, looked up)
chain: T3 sequence
B5: Pou4f2D5 (a.a. 125-411) (domain or fragment, mouse, UniProt Q63934 125-411, looked up)
chain: T1 sequence
notes: Pou4f2, mouse, a.a; 125-411, POU and homeo domains intact; source: E. coli, in lysate (pull-down); purified on His SpinTrap columns (EMSA); not shown: His tag, C-terminal, kept
B6: Isl1D3 (a.a. 170-349) (domain or fragment, mouse, UniProt P61372 170-349, looked up)
chain: LRPHVHKQPEKTTRVRTVLNEKQLHTLRTCYAANPRPDALMKEQLVEMTGLSPRVIRVWFQNKRCKDKKRSIMMKQLQQQQPNDKTNIQGMTGTPMVAASPERHDGGLQANPVEVQSYQPPWKVLSDFALQSDIDQPAFQQLVNFSEGGPGSNSTGSEVASMSSQLPDTPNSMVASPIEA
notes: Isl1, mouse, a.a; 170-349, only the homeodomain and the C terminal region, none of the Lim domains; source: E. coli, in lysate (pull-down); purified on His SpinTrap columns (EMSA); not shown: His tag, C-terminal, kept
B7: IRX6(M) (dsDNA)
DNA 1: TACTACTGCTTCGTTGCTTGCAAACATTTC
DNA 2: GGAAATGTTTGCAAGCAACGAAGCAGTAGTA
B8: EBF3(M) (dsDNA)
DNA 1: GTGCGTTGCTATTTTCGTTGCTCGGGAAAA
DNA 2: TTTTCCCGAGCAACGAAAATAGCAACGCAC
B9: CBRN3(M) (dsDNA)
DNA 1: GATCTCTCCTGCGCGGTTGACTACCCCCGGAT
DNA 2: GATCCGGGGGTAGTCAACCGCGCAGGAGAGAT
B10: EBF3(W) (dsDNA)
DNA 1: GTGCGTTAATATTTTAATTAATCGGGAAAA
DNA 2: TTTTCCCGATTAATTAAAATATTAACGCAC
B11: Isl1, full-length, His-tagged (natural protein, mouse, UniProt P61372 1-349, looked up)
chain: T2 sequence
notes: Isl1, mouse, full-length coding region in pET-28a(+); 349 a.a; source: E. coli, in lysate (pull-down); purified on His SpinTrap columns (EMSA); not shown: His tag, C-terminal, kept
B12: Isl1D4 (a.a. 146-349) (domain or fragment, mouse, UniProt P61372 146-349, looked up)
chain: PLSPLHPARPLQMAAEPISARQPALRPHVHKQPEKTTRVRTVLNEKQLHTLRTCYAANPRPDALMKEQLVEMTGLSPRVIRVWFQNKRCKDKKRSIMMKQLQQQQPNDKTNIQGMTGTPMVAASPERHDGGLQANPVEVQSYQPPWKVLSDFALQSDIDQPAFQQLVNFSEGGPGSNSTGSEVASMSSQLPDTPNSMVASPIEA
notes: Isl1, mouse, a.a; 146-349; source: E. coli, in lysate (pull-down); purified on His SpinTrap columns (EMSA); not shown: His tag, C-terminal, kept

Assays:
[1] = biological target: T1, Pou4f2D5; assay: EMSA; EMSA: 20 mM Tris-HCl pH 7.5, 50 mM NaCl, 10 mM DTT, 1 mM EDTA, 5% glycerol, 200 ng dI/dC, 200 ng each protein in 20 ul, 4 C, 30 min; 8% PAGE, 1x TBE, 4 C; settings: protein: recombinant, tags: His (C-terminal)
[2] = biological target: T2, Isl1; assay: as above; settings: protein: recombinant, tags: His (C-terminal, pET-28a)
[3] = biological target: T3, Pou4f2 (Brn3b); assay: as above; settings: protein: recombinant; tags: His (C-terminal, pET-28a); (radiolabel, Klenow fill-in); 5' overhang 1 nt at both ends before fill-in
[4] = biological target: T4, Pou4f2, full-length, His-tagged; assay: native gel or EMSA; EMSA with purified His-tagged proteins (200 ng each) and radiolabelled DNA probes (SBRN3, CBRN3; Ebf3 and Irx6 for Isl1 with Pou4f2D5); protein-protein complex read from a slower migrating ternary complex on DNA; 20 mM Tris-HCl pH 7.5, 0.05 M NaCl, 10 mM DTT, 1 mM EDTA, 5% glycerol, 4 C; settings: both partners purified
[5] = biological target: T5, Isl1 expressed in HEK 293 cells; assay: cell-based or functional assay
[6] = biological target: B11; assay: native gel or EMSA; EMSA with purified His-tagged proteins (200 ng each) and radiolabelled DNA probes (SBRN3, CBRN3; Ebf3 and Irx6 for Isl1 with Pou4f2D5); protein-protein complex read from a slower migrating ternary complex on DNA; 20 mM Tris-HCl pH 7.5, 0.05 M NaCl, 10 mM DTT, 1 mM EDTA, 5% glycerol, 4 C; settings: both partners purified
[7] = (radiolabel, Klenow fill-in), 5' overhang 1 nt at both ends before fill-in
[8] = (radiolabel, Klenow fill-in), one end blunt, lower strand 5' overhang 1 nt before fill-in

Binder: B1
binding result [1, 7]: binds
binding result [2, 7]: binds

Binder: B2
binding result [3]: no binding
binding result [2, 7]: no binding

Binder: B3
binding result [4]: binds

Binder: B4
luciferase reporter with the CBRN3 motif in HEK 293 cells, both expression constructs co-transfected, fold increase from the control (each factor alone about 2.5 fold) [5]: ~3.5 fold

Binder: B5
binding result [6]: binds

Binder: B6
binding result [4]: binds

Binder: B7
binding result [1, 8]: no binding
binding result [2, 8]: no binding

Binder: B8
binding result ([1]; (radiolabel, Klenow), blunt): no binding
binding result ([2]; (radiolabel, Klenow), blunt): no binding

Binder: B9
binding result [3]: no binding
binding result [2, 7]: no binding

Binder: B10
binding result ([1]; (radiolabel, Klenow), blunt): binds
binding result ([2]; (radiolabel, Klenow), blunt): binds

Binder: B11
binding result [4]: binds

Binder: B12
binding result [4]: binds
